Results taken from the DeepSol protein solubility set.

Experiment: soluble on expression in E. coli; label from the status in PepcDB or PDB records

Soluble on expression in E. coli, not soluble:
MGSDKIHHHHHHMGRLFYKPENAWVGDLIPYYENGTYYGFYLHDPRIRDKEYAEDTTWHLIETKDFVNLDYKGESIARGGIHDANKNAYTGSVIKCEKDGLYHVFYTAYNEDFKLRGKTIQSVMQATGKNLENLETVKDFLFVSDGKQYEEFDWRDPFVFWNDEDQCYYMLLASRVTNRGDLRGGCIALCKSEDLINWTYEKPFYDPKMYITMECPELFKMGEYWYLVFSTFSDQFTTHYRISKNWNGPWEIPDDDVFDTRADYAIKTASDGKRRFAFGWIASKYGNTDFGPWEWGGTMNFHEIIQNSKNGELRIKAIPEVLDYFSKEIELKKETLYNCKMVQAQDGVSVESDTLGALLYPLEGDTFALDMVIKPERYHEFGIALHVDKELETGYFLRMNPKNQLVAWDMWPRGEQGRYQWQIKGDVPYQIETARKLPKAEEYRVHIIKEKDICVVYINDEIVLSTRMYNHKDGYAGIYVVQGDVKLIQYKEKRSE
MGSDKIHHHHHHMGVKTAAIKPQINRFFERIINMIIDRERVKNTFAEYTSGYNATDPKIKLKIDHTYRVAELCELIARNLKLDEYETDVAWLTGMLHDVGRFEQIKCYNTFNDALSVDHANFGADLLFKEGLIDTYVDGFHDDKYGTIVENAIRNHSAFRIDERLDEYTVMFCNILRDADKVDIFRVNVDTPAEDIYNVTTEELKNSQVSPEVMAAFDERHAVLRSCKKTVVDHVAGHIALTFELVYPISLQIANERGYLDKMMAFESDNEVTGKQFEEIRAKLNEYVASVKPL
MGSDKIHHHHHHMGVMMKQKIKILTVIGLMTVGMSACHNTSKPSNTDSVFSLTGKKRQQIVKQVRQRYYFQQLSKTEQENYLTLYDSLAQFREIISLTPASKKSLIKTIDAFVMDNPEFYWITSADYRFEFSDQTVFVTFPIPEDAKNIYQDLQAIGNDIVANTPSKDRYEQVKYFYEVIIRDTDYNKKAFEAYQSGSQAQVASNQDIKSVFIDHLSVCNGYAQAFQFLCQKAGIPVAYIRGTGTSQQPQQSFAHAWNAVQINNTYYGVDVTWGDPVFDNHLSHQKQGTINYSFLCLPDYLMALSHQPSKDIAFNTKERFENVWTIPSCTDDSLLYSKRHQSYISTFDSDAILASLENQLLNRQEPLSLQFAHQDDYQQMVTDLTTNQTGYHNLFNQYWNNYTGFTYGLLPETLSISFASRN
MGSDKIHHHHHHMGYRTLKSIFHEHNESKMKEEYTKRFNSLASFNTNINIIPMENGKKVNDLEYPLFFMVTKNLSKKQELISINSRKIDRALNSLPYAAREQYFNDLLIDELQSTNEIENVFSTKQEIAHALNNQASEFLKFRGLVDQYKEIELNKKIKVDNVRDIRAIYDKLVSNEINEQDKLDGELFRKNFVGVHDGSTNKYIHVGLQPETKIVEYIGEMLTFLKYFDAPQPFKIMASHYLFEYIHPFYDGNGRVGRFIIAKLLSDYYDNYTALTFSYVINRNKSKYYKAFMTASNHLNCGDLTEFIDTMLELLIAGQERILDELIPKMDATEKLTLYLTSHYKQIDYEFLYLLSMDKLFGNKRNRLTLIDLENILGVGRVKINNTIKKYDNYLVKIKSRPIIYEISDEFLNSIIK
MGSDKIHHHHHHMHLGKINEDVFNKVIYPHLGERRKEVVVGPQHGVDTGAIDLQDGRVLVVKTDPVFIVPQFGFKKAAWFAVHILASDVMTSGIPPEYAVIDLNLPPRIKDEEFEEMWIGIHEALKEIGVMVVGGHTGVYEGTDYPMVGGFTMFGIGEKERLGMPSKVKVGDSVIMTKGPAIEATGLLTNLYPEYFKQRLSNEIFNEAYNMYWKMSCWKDGLIASRIGIHMMHDATEGGVFGALTEVARASSKGMRIYEERFFINRAVREVTKLVNIDPWISISEGTMIIVTDKGEEVRNTLIREGIEAEIIGEIVDQSGEVTMVKKDGSRVKIEHPLEDPFWRAFFDLASKT
MGSDKIHHHHHHMHLLFPEVCILCQKPLGEGEEHICAGCFNDFNPFPSVLAGGAALKSTVRAHFGEKAVPAAAWCLYPYRSRGSLHEAMHAMKYGGLFPLGELFGKRLGELICQGGVPVGFDAIVPVPLHHLKRIERTYNQAEALARGMAGLIGLPVATRSLERCVYTGTQTGLGLEARRENMAGAFRPGRERCPARVLLVDDVLTTGATMVSAAKVLKAAGAVEVAFATVALTEKE
MGSDKIHHHHHHMHLSINLLPILSQHQVSFNTDIYCLEKFMFQIDTLIAAKIVDRTMKIIGHNINVMNAQAVILGSGDIDRIGTVHEGALLAISQNRNVEISQAIASNLHGVKPGLNLPLHYHGQVVGVIGITGEPDTLSHYGELLKMTAEMIVEQANLQEQLQWQNRQTEEFISQLIHANEQDLPSLQQWALQLGIDLSVPRVAAIIELDSNNPLYQQDNQALKQVLYLLQNPVRDNLIAMTSLTQLVILKPAFLDGKQFDPELENQRINKLLKRLPANMQLSLHISLGHYFGGELGISYSYRTAKETLDIGKKLHPTKTKYLYQDYSLQVLLSGLRHHWRGNALAGPYLKLIEVDNNQQLQKTLAAYLDHMGDIQACANSLFIHRNTLRYRLDKIQTITNIDLRSFNGLLSLYLGQLIHQPST
MGSDKIHHHHHHMHMKLDDITYMNPWWEGKEDYHVKQWEKQKVHWEPKWIREISLKPFSLNFVLGPRQVGKTTGIKLLIQKILEENPPESVLYLNLEILPTYRELLDIIREFQELKKEEGIKTGYIFLDEASSLEGWWRGVKPLIDSGLLENDVITVTGSSSLRVRRDIELFPGRRGGGKTLEVMPLSFPEYARVMGLKKHKLEGSKVIKLFEKYIQTGGFPGSINGFPMEDLLGAYIGEFVRFGKSLEIAKEIFSALIRSAPSATSFRALAEMTSGYSYKVVQDYIEFFRDLYILGMAYLKQGNQVMYRREKKFFFRDPLLAKLFSLWSGTEIGKDALYEWIVQEHVFRKFGEIHYFRNSYEIDIIASDMKIEVKAGKAHRKYPRGVKVLEKEDVPFFLIELYNEDC
MGSDKIHHHHHHMHQDTVRATAFAMPLTSPAYPVGPYRFRNREYLIITYRTDPKKLRSLVPEPLELSEPLVKFEFIRMPDSTGFGNYTESGQVIPVTFRGRKGSYTHCMFLNDHPPIAGGRELWGFPKKLATPTLRTETDTLVGTLDYGPVRVATATMGYKHEAADLSAVRSSLAEPNFLLKIIPHVDGTPRICELVEYHLEDVDLRGAWAGPASLNLWSHALAPVAELPVLEVVSAMHIVADLTLALGKVVHDYLPKSEPRDLKGRSHAFAE
MGSDKIHHHHHHMHRVGFTTTIPLEIVLAAGMTPVDLNNVFITSPHATRMIEEAEVDGFPRSICGWIKGIYAAVVECGIHELIAVTEGDCSNTRALMEVLSLKGVETIPFAYPHDRDPAGLRFEIEKLMRRFGVGWDAVKLSRERLGRIRRKVKEIDRLTWDENRVSGQENHYFQVCTSDMNSDPDRFEAEVDAFLEKARQREPFRQRLRLAYIGVPPIMTDLYPFVETLDARVVFNETQRQFAMPFDTPDLVEQYRAYTYPYDIFHRLSDILMELERRKVDAVIHYVQSFCFRQIEDMIVRQKLPLPVLTLEGDKPGPLDARTRIRIEGFLEMLA
MGSDKIHHHHHHMHSFHDAFSAPNAGNDTEAKRLPAKRRIRLKTAVLGVLLLASVAAQAEPRLTDLQYIGSHNSYHAGFAPSEATLLKQHDPAAFATLDYRHPPLTQQLDDGVRQLELDVFADAHGGRYAHPAIVEQIAKAGLPPAPASAPAGVMNKPGFKVLHVQDVDQRSTCQPLVTCLQEVRAWSQQHPGHLPIFILLETKQSPVQLSFPTVQPEPFDRKAMDALDAELRSVFRPGEYVSPDTVRGTARTLNAAVLAHGWPALRATRGKVVFLLDQRAAGASYLPGHPSLRGRVCFTNAEPGQDDAAFTERNDGPAEDITRLVQAGYLVRTRTDADLKEPARGDNRRRDAMLATGAQLLSTDFPAHEPARNGYVVRFDGDAVARCAPQLPRAHCEGVDLTH
MGSDKIHHHHHHMIAVLDMGTNSFILLVVSEKGETILEEVHEVGIASGNLEKAKEVFKECVEKAEKMGAELHIFGTAFFRKHPDIFQQITGGRGEILPEEKEAYYSYISVAKDFGKKDILVADLGGGSLELAWKDGYVSLELGTHVLNRTFSLTLPYIEPVDGIVEYVMKRLPEVKKDELFGVGGSFVALAALMKGKWDLEILHGSVLKLEEVEKLVDKIKRMSFEDVKNLKVLPEGREKTILAGGIVTIALLRKYSPRMTVSTRGYRYGIVWEILEKRWRARGDSNPQPPDPQSGALSN
MGSDKIHHHHHHMIDSHAHLISADVERYPTSPLSGELEPGALDNPVTAERLLALMDEQGIERALAVQRAHIYGFNNAYVCDAAQRYPERLRALGMVDALDQNIREQVRHWVGERGAVGIRLTEPFKGADPSWFASPEAMAAWETVSELGGSVRLHFYRWNREAALKALKPVLQRFPQTTVVLDHFSNIVGESGAPDHGVDATLLEMVEHSNVYLLYSMINLGKLAAAQMAAAPMVERVVREFGADRVMWGSDVAQSKGSYAQMVALAKESVSLLSETDQRKVLHDTAHAVYWGTR
MGSDKIHHHHHHMIERKRYVTMKGHRGGLAVYVNERCSVDEFLDDLELTLADKSVENGRAVPITFFFGRRYVDEGVVTAVESIVARHDSFSFNGYDSECLTKDEAKALYGERTFHYFGGTARSGHVVDVEGSIVVIGDINPGAVVHATGSIYCLGALRGTVHAGKGGNHQAVIAASVLQPKWISISDFVYEDPDDAPIQALDMGCAFVGETGVEFSRLQTVPLARMDQFAIDSERG
MGSDKIHHHHHHMIFSNLKLNDNEPIYIQLKNYISDMISKGLIPDNSKLPSTRELSQLLQVSRNSVVLTYEELKSEGLIYSISGKGTFVKSKNKSSNTTWSLNWDCLENTYSKKANELDIIKSEIPWSSDLISFKSISPDGDLFDMEELKKSFLNRISLEGHKLLNYGYAQGYKPLIDYLLEYMTNKGADISNKDILITNGFTEGFDIIMSSFTQEKDYIICENPTHNTAIKIMKSHNLNILGVDINEDGLDFNMLEDNLIKYKNKIKFAYITPSYHNPTGIVMTPENRYKFYNLMKKYNIAIIEDGFNEELLYNSSHIFPICSLDNMNNGVVYIGSFSKILFPGMRIGWIFADKKVINKLESVKRCRNIHVSFLDQGILFDYLSNGGFEKYIKKIRKFYGDKFNFAYKCIKKYIKTEYILGDGGLHIFIKLKNIDTRVLLEKCYEKNVIFMPGDLFFTDNSGFDTLRLGFSRLSFEDIEIGIKIIGETINEMF
MGSDKIHHHHHHMIGHSEVIRCFGMSGKVYFFNDSGNIQKGVHDLPPKGLACFVKIKNMMMQAKPAEVSMVDALVDPWLGAIGRDFEGYRNHCRRVFIFACTLAGAEGESREKIAIAAAFHDLGIWTDNTFDYLEPSKRLASAYLASTSKAEWTDEIKAMIEQHHKVTPWSCKPGWLVEPFRKADWIDVTLGARNFELNRSYIREIQRRYPNAGFHATLARLSFERMKTHPKDPLPMMRW
MGSDKIHHHHHHMIGVRLLVKMSFRSGFRVGRGNETDSTLPTIHSDTIYGAVVYHAFKWSEKAEDFAKKLKVSSLLFVRGDRLLVPKPFLYNTYSLEEDDEESPKELKKASYVFLDKLADYRSIKEASGAVCKENPVEIVRIPRNSLDRITSSSNLYFVEVAFVKEGFTPAFLAEFPDEYEGLFKTAVKSLGDSGIGADSTYGYGLFNAEFESAPDFPEEGEYYLTLSLFVPSAEERSKMNEGYYRVVKRRGVKRDEMKVKKEISYVQEGSVFPFKPEGRGVLKIEDYFVQTSPLCVAFGGDGK
